In series [1] the test system is hTERT-immortalized dermal melanocytes. The series can be described thus: Melanocyte assay, absorbance of lysate pellets (Example 6). Type of series: cell-based, human. The settings on record: melanocyte lysate pellet, 5 days. How it is done: hTERT-immortalized dermal melanocytes were treated with various compounds.
Stocks of compounds 1 through 10 on the list below were suspended in either complete melanocyte growth media or DMSO (indicated in parentheses.) Each compound re-suspension was then diluted in melanocyte growth media to the final concentrations in Table 9.
Lysates were prepared for each sample. Briefly, 6.6×10^5 cells from each sample was spun down and collected in a vial. 150 uL of CHAPS lysis buffer was added to each duplicate sample, vortexed and placed in a dry-ice/ethanol bath for 2 minutes, then left at room temp until completed thawed. This freeze thaw was done one more time, for a total of two freeze/thaw cycles. The lysate samples were spun for 15 minutes at 14,800 rpm. The supernatant was removed, leaving a black pellet in the vial. The pellet was re-suspended in 100 uL of a 1 M NaOH/10% DMSO solution and incubated at 80° C. for 90 minutes, pipet mixing at 30 minutes, 60 minutes and at 90 minutes.
100 uL of each duplicate sample at each concentration was added to individual wells of a flat bottom 96 well plate and absorbance readings were taken at 405 nm, 490 nm and 492 nm on the Envision 2103 Multilabel Reader.

The subject of a further series is melanogenic genes. The series can be described thus: Cell line melanogenic gene activity testing, overall conclusion. Type of series: cell-based, human. The settings on record: conclusion over melanocytes, keratinocytes, HUVECs. How it is done:
(§1) Four cell types associated with pigmentation pathways-melanocytes, keratinocytes, fibroblasts and endothelial (HUVEC) cells-were analyzed for gene expression.
(§2) To simulate the UV stimulatory pigmentation pathway process, melanocytes were pre-treated with PGE2, a normal direct consequence of UV light exposure usually emanating from exposed keratinocytes. After the 48 hour attachment culture, these melanocytes were induced with 10 uM PGE2 in melanocyte media for 24 hrs. The four primary human adult dermal cell lines were cultured and plated in well plates in triplicate and then treated with 11 different compound treatments (plus DMSO control). After 48 hours of attachment culture, the remaining fibroblasts, HUVECs and keratinocytes were treated with the test compounds listed in Table 6.
(§3) After 24 hours of compound exposure, RNA lysate preparation was carried out and samples were shipped to MedGenome for RNA extraction, library construction and sequencing to 25M paired end 100 bp reads per sample. Library prep and sequencing was completed at MedGenome.

The subject of series [2] is hTERT-immortalized dermal melanocytes. The series can be described thus: Melanocyte assay, daily inspection of morphology and survival (Example 6). The following applies: both 500 and 1000 ug/mL.
Description: Melanocytes were initially plated in 6-well tissue culture plate (1.5×10^3 cells per well) in melanocyte growth media (Dermal Cell Basal Medium (ATCC® PCS-200-030 supplemented with Melanocyte Growth Kit (ATCC® PCS-200-041). Melanocytes were then expanded into 10 cm tissue culture plates at concentrations recommended by ATCC. The cells appear to fully adhere to the plate/dish while culturing with a webbed morphology. Cells were cultured at 37° C. 5% CO2 incubator.
Once the melanocytes were 100% confluent in 6-well plates, the melanocyte growth media was removed and the melanocytes were treated with media containing the above compounds; duplicate wells for each compound/concentration listed above. The duplicate vehicle control wells were fed melanocyte growth media only or melanocyte growth media with DMSO (10 uL per 10 mL melanocyte growth media).
The cells were fed the appropriate media for the next 5 days. Each day, the cells were inspected for morphology.
Series [3] has as its system melanocytes (melanin production). The series can be described thus: In vitro melanocyte comparative analysis via absorbance readings (Example 4). It is filed as cell-based. The settings on record: for Absorbance 405 nm / Absorbance 490 nm / Absorbance 492 nm: melanocyte lysates, 4 days. How it is done:
Melanocytes were cultured in 6-well plates containing growth media. Once confluent, 2 concentrations of each of the 10 compounds were added to the cells in triplicate wells for 4 days. There were a total of eleven 6-well plates, one for each compound treatment and one for the vehicle control. Absorbance readings were taken on the lysates prepared for each well of the 6-well plates, normalizing for cells counts. […] Additional validation was carried out using MSH addition to media to confirm increased stimulation of melanin production. The following compounds used in this study are seen in Table 7.

Series [4] concerns melanogenic genes in melanocytes. Put plainly: Gene expression study (RNA sequencing) in PGE2-induced melanocytes. Type of series: cell-based, human. How it is done: as §1, §2, §3
Series [5] relates to PMEL, tyrosinase genes, MC1/4R, EDNRB, MITF, ERK1/2, JNK, AKT1. The series can be described thus: Gene expression studies of Example 5. It is filed as cell-based. The text has this: The methods similar to Examples 3-4 were used to measure expression of PMEL, tyrosinase genes, MC1/4R, EDNRB, MITF, ERK1/2, JNK, and ANKT1.
FIGS. 10A-10D illustrates the expression of PMEL (FIG. 10A), Tyrosinase genes (FIG. 10B), MC1/4R (FIG. 10C), and EDNRB (FIG. 10D) after treatment of endothelial cells with lactoferrin (Lacto), peptide derived from lactoferrin (TCV), hexapeptide-12 (Hex12), tripeptide-1 and hexapeptide-12 (TriHex), hexapeptide-11 (Hex11), tranexamic acid (Tran acid) octapeptide (Octa), phosphatidylserine (phos), Cannabidiol (CBD), and all (total).
MITF is regulated by phosphorylation. Specifically, the MAPK and Akt pathways are known to phosphorylate MITF at certain sites. FIGS. 12A-12C illustrate the expression of ERK1/2 (MAPK3/MAPK1) (FIG. 12A), JNK (FIG. 12B), AKT1 (FIG. 12C) after treatment of endothelial cells with lactoferrin (Lacto), peptide derived from lactoferrin (TCV), hexapeptide-12 (Hex12), tripeptide-1 and hexapeptide-12 (TriHex), hexapeptide-11 (Hex11), octapeptide (Octa), phosphatidylserine (phos), Cannabidiol (CBD), and all (total).

B1: Lactoferrin (protein, UniProt P02788 20-710, looked up)
Lactotransferrin: GRRRSVQWCAVSQPEATKCFQWQRNMRKVRGPPVSCIKRDSPIQCIQAIAENRADAVTLDGGFIYEAGLAPYKLRPVAAEVYGTERQPRTHYYAVAVVKKGGSFQLNELQGLKSCHTGLRRTAGWNVPIGTLRPFLNWTGPPEPIEAAVARFFSASCVPGADKGQFPNLCRLCAGTGENKCAFSSQEPYFSYSGAFKCLRDGAGDVAFIRESTVFEDLSDEAERDEYELLCPDNTRKPVDKFKDCHLARVPSHAVVARSVNGKEDAIWNLLRQAQEKFGKDKSPKFQLFGSPSGQKDLLFKDSAIGFSRVPPRIDSGLYLGSGYFTAIQNLRKSEEEVAARRARVVWCAVGEQELRKCNQWSGLSEGSVTCSSASTTEDCIALVLKGEADAMSLDGGYVYTAGKCGLVPVLAENYKSQQSSDPDPNCVDRPVEGYLAVAVVRRSDTSLTWNSVKGKKSCHTAVDRTAGWNIPMGLLFNQTGSCKFDEYFSQSCAPGSDPRSNLCALCIGDEQGENKCVPNSNERYYGYTGAFRCLAENAGDVAFVKDVTVLQNTDGNNNEAWAKDLKLADFALLCLDGKRKPVTEARSCHLAMAPNHAVVSRMDKVERLKQVLLHQQAKFGRNGSDCPDKFCLFQSETKNLLFNDNTECLARLHGKTTYEKYLGPQYVAGITNLKKCSTSPLLEACEFLRK
In the case of B1, the “Absorbance 405 nm” value in series [1] (500 ug/uL) is listed as 0.509; in series [1] (1000 ug/uL), 0.519; in series [3] (500 ug/uL) it was 0.509; in series [3] (1000 ug/uL), 0.519. The “Absorbance 490 nm” value was found to be 0.334 in series [1] (500 ug/uL), 0.312 in series [1] (1000 ug/uL), 0.334 in series [3] (500 ug/uL) and 0.312 in series [3] (1000 ug/uL). For the same molecule, the “Absorbance 492 nm” value in series [1] (500 ug/uL) turned out to be 0.217; in series [1] (1000 ug/uL), 0.226; in series [3] (500 ug/uL) it was 0.217; in series [3] (1000 ug/uL), 0.226. The “effects on melanogenesis activity” value in the series with melanogenic genes is “significant effects on melanogenesis activity”. Further, the melanocyte morphology result in series [2] (24 hour post-initial dosing) is reported as “circular morphology”; in series [2] (48 hours post-initial dosing, maintained through the 5 day dosing period), “returned to normal morphology”. For the same molecule, the “regulation of melanogenesis (decrease of absorption = decreased melanin formation)” value in series [3] (melanocytes, Table 8) is “Regulation of melanogenesis was observed”. Further, the “melanogenic activity (FIGS. 3A-3D)” value in series [4] (melanocytes pre-treated with 10 uM PGE2, 24 hours of compound exposure) was “particularly dominant in melanogenic activity”. Also, in series [4] (melanocytes, 24 hours of compound exposure), the “expression of melanogenic genes (FIG. 4, FIG. 5)” value was “downregulation of melanogenic genes”. The “melanogenic activity (expression of PMEL, Tyrosinase genes, MC1/4R, EDNRB; FIGS. 10A-10D)” value in series [5] (after treatment of endothelial cells) is “robust melanogenic activity”. Moreover, the “effects on melanogenic activity (kinase expression linked to decreased MITF expression)” value in series [5] (conclusion of Example 5) is “significant effects”.

Values taken from US12485079B2, “Compositions and methods relating to pigmentation” (Alastin Skincare, Inc., priority 2020, dated 2025).
